Experimental data from patent publication US20160138094, “Direct, Programmable Detection of Epigenetic DNA Cytosine Modifications using TAL Effectors” (UNIVERSITÄt KONSTANZ, published 2016).

B1: t97 template / p97_rev primer (dsDNA)
DNA 1: TGGATTCCCACTCTTCAGCCCCAGCGTTACAGCATCTTCAGTGGCTTCTTCCACCGTGAGCTCTTCCGTTTCCACATCC
DNA 2: GGATGTGGAAACGGAAGA
B2: 97 / 97_C2/5/6/11/12/14mC_rev duplex (dsDNA)
DNA 1: AGACGGCATACGATCTTCCGTTTCCACATCCACCACATCCCAACAGAGCAGCGGGAGCAGCAGTAAAGATCGGAAGAGC
DNA 2: GCTCTTCCGATCTTTACTGCTGCTCCCGCTGCTCTGTTGGGATGTGGTGGATGTGGAAACGGAAGATCGTATGCCGTCT

Tests used:
[1] = target: T1, TALE_97 (HD at repeat 5 opposite C6) (Xanthomonas axonopodis pv. citri …, UniProt B2SU53); assay: inhibition; inhibition of Klenow exo- primer extension, MgCl2, room temperature; conditions: tags: N-terminal thioredoxin and S-tag, C-terminal His6; label: 5'-32P on primer; 5' overhang template with primer duplex at template 3' end
Method: Templates as shown in FIG. 2 (SEQ ID NOs: 9 to 14) and primer p97_rev (SEQ ID NO: 15; 5′-³²P-end labeled as above) were diluted from 5× stocks (500 nM and 166.5 nM, respectively) into 6 μL Hybridization buffer (40 mM Tris-HCl (pH 8.0), 100 mM NaCl, 10 mM MgCl₂, 0.2 mg/ml BSA, 10% glycerol) to final concentrations of 100 nM and 33.3 nM and hybridized by incubating at 95° C. for 5 min and subsequently at room temperature for 30 min. TALE proteins with various RVDs at position 5 were added in 6 μL TALE storage buffer (200 mM NaCl, 20 mM Tris-HCl (pH 7.5), 1 mM DTT, 10% glycerol) at varying concentrations and mixtures were incubated at room temperature for 30 min. 12 μL of a mixture of 25 mU Klenow Fragment of E. coli DNA polymerase I (3′-5′-exo⁻, New England Biolabs) and 200 μM of each dNTP in Binding buffer (30 mM Tris-HCl (pH 8.0), 150 mM NaCl, 5 mM MgCl₂, 0.1 mg/ml BSA, 0.5 mM DTT, 7.5% glycerol) were added, resulting in final concentrations of 8.325 nM and 25 nM for primer and template, respectively. These mixtures were incubated at room temperature for additional 15 min. 12 μL of PAGE loading buffer (80% formamide, 2 mM EDTA) were added, the mixtures were incubated at 95° C. for 5 min and cooled to 4° C. […] Gel was dried and data recorded on a phosphorimager. […]

[2] = target: T1, TALE_97 (HD at repeat 5 opposite C6); assay: EMSA; Tris, NaCl, MgCl2, salmon sperm DNA, room temperature; conditions: tags: N-terminal thioredoxin and S-tag, C-terminal His6; label: 5'-32P on reverse strand
From the text: Oligonucleotides 97_C2/5/6/11/12/14 mC_rev (SEQ ID NO: 5) and 97_T3/4/8/9/10/16 mC_rev (SEQ ID NO: 8) were 5′-³²P-end labeled using γ-³²P-ATP and T4 polynucleotide kinase (Fermentas) and purified using a G-25 gel filtration column (GE Healthcare). Oligonucleotides were hybridized pairwise (97/97_C2/5/6/11/12/14 mC_rev (SEQ ID NO: 3/SEQ ID NO: 5); 97_C2/5/6/11/12/14 mC/97_C2/5/6/11/12/14 mC_rev (SEQ ID NO: 4/SEQ ID NO: 5); 97_T3/4/8/9/10/16 C/97_T3/4/8/9/10/16 mC_rev (SEQ ID NO: 6/SEQ ID NO: 8); 97_T3/4/8/9/10/16 mC/97_T3/4/8/9/10/16 mC_rev (SEQ ID NO: 7/SEQ ID NO: 8)) at a concentration of 12.5 nM, respectively, by incubating at 95° C. for 5 min and subsequently at room temperature for 30 min in Hybridization buffer (40 mM Tris-HCl (pH=8.0), 100 mM NaCl, 10 mM MgCl₂, 100 ng/μl salmon sperm DNA (Ambion), 0.2 mg/ml BSA, 10% glycerol). For TALE-binding, to 6 μL of the hybridized DNA duplexes, 6 μL of TALE storage buffer (20 mM Tris-HCl pH=7.5, 200 mM NaCl, 10% Glycerol, 1 mM DTT) with varying concentrations of TALE proteins were added and mixtures were incubated at room temperature for 30 min. Mixtures were loaded onto an analytical, non-denaturing PAGE-gel (0.5 mm, 50 cm length) that was run in 0.25×TB buffer at 12 W and room temperature. Gel was dried and data recorded on a phosphorimager.

Row | Binder | IC50 [1] | binding result [2]
1 | B1 | 106 nM | 
2 | B2 |  | binds
